Measured values from patent publication US20150284436A1 (published 2015).
Positions count from the first letter of the chain named. In names and notes the source's numbering stands.

B1: N-TXNIP (N-terminal domain of TXNIP, residues 3-156) (other)
chain: MFKKIKSFEVVFNDPEKVYGSGERVAGRVIVEVCEVTRVKAVRILACGVAKVLWMQGSQQCKQTSEYLRYEDTLLLEDQPTGENEMVIMRPGNKYEYKFGFELPQGPLGTSFKGKYGCVDYWVKAFLDRPSQPTQETKKNFEVVDLVDVNTPDL
notes: The NMR sample was 15N-labeled and its hexahistidine-tag was removed by rTEV; In the Ni-NTA co-purification it carried the N-terminal hexahistidine-tag; also called N-terminal TXNIP; ^15N-labeled N-TXNIP
B2: TRX C62A mutant (NMR sample) (enzyme)
chain: MVKQIESKTAFQEALDAAGDKLVVVDFSATWCGPCKMIKPFFHSLSEKYSNVIFLEVDVDDAQDVASECEVKCMPTFQFFKKGQKVGEFSGANKEKLEATINELV
notes: not shown: C-terminal hexahistidine-tag from pET21 vector
B3: TRX C69A mutant (NMR sample) (enzyme)
chain: B2 chain with A62C, C69A
notes: as for B2
B4: TRX C73A mutant (NMR sample) (enzyme)
chain: B2 chain with A62C, C73A
notes: as for B2
B5: N-TXNIP C120S mutant (^15N-labeled) (other)
chain: B1 chain with C118S
B6: N-TXNIP C63S mutant (^15N-labeled) (other)
chain: B1 chain with C61S
B7: T-TXNIP(C170S/C205S/C267S) (other)
chain: MFKKIKSFEVVFNDPEKVYGSGERVAGRVIVEVCEVTRVKAVRILACGVAKVLWMQGSQQCKQTSEYLRYEDTLLLEDQPTGENEMVIMRPGNKYEYKFGFELPQGPLGTSFKGKYGCVDYWVKAFLDRPSQPTQETKKNFEVVDLVDVNTPDLMAPVSAKKEKKVSSMFIPDGRVSVSARIDRKGFCEGDEISIHADFENTSSRIVVPKAAIVARHTYLANGQTKVLTQKLSSVRGNHIISGTCASWRGKSLRVQKIRPSILGSNILRVEYSLLIYVSVPGSKKVILDLPLVIGSRSGLSSRTSSMASRTSSEM
notes: 1; The N-terminal hexahistidine-tag was removed by rTEV protease; also called modified TXNIP protein of COM2
B8: FLAG-tagged T-TXNIP (other)
chain: B7 chain with S168C, S203C, S265C
notes: Expressed in HEK 293T cells
B9: T-TXNIP(C120S/C170S/C205S/C267S) (other)
chain: B7 chain with C118S
notes: 1; The N-terminal hexahistidine-tag was removed by rTEV protease; also called T-TXNIP(C120,170,205,267S); modified TXNIP protein of COM1
B10: human TRX (thioredoxin), wild-type, tag-free (enzyme)
chain: B2 chain with A62C
notes: Expressed tag-free under the T7 promoter together with TXNIP constructs in E. coli; also called native TRX; endogenous TRX

What was measured:
[1] = target: T1, TRX, wild-type, with C-terminal hexahistidine-tag (NMR sample) (human, UniProt P10599 1-105); experiment: 1H-15N HSQC NMR titration of 15N-labeled N-TXNIP
T1 construct: also called unlabeled, reduced TRX; wild-type TRX; not shown: C-terminal hexahistidine-tag from pET21 vector
T1 sequence: B2 chain with A62C
Protocol: (§1) NMR interaction experiments were carried out by recording ¹H-¹⁵N NMR HSQC spectra of ¹⁵N-labeled N-TXNIP upon addition of unlabeled TRX or its mutant, which was reduced with 5 mM DTT and dialyzed against 50 mM potassium phosphate (pH 6.6) prior to the interaction study to remove excess DTT.
(§2) The ¹H-¹⁵N HSQC spectra of all proteins were measured on a Bruker 900 MHz NMR spectrometer at the Korea Basic Science Institute (Ochang, Korea). The NMR measurements were performed using 0.3 mM ¹⁵N-labeled protein in 50 mM potassium phosphate (pH 6.6) containing 10% D₂O at 25° C. All NMR spectra were processed with Topspin 2.1 and analyzed with the program SPARKY 3.1.
To evaluate the involvement of N-TXNIP in the interaction of TXNIP with TRX, an NMR-titration experiment was performed by recording a series of ¹H-¹⁵N heteronuclear single quantum coherence (HSQC) spectra of ¹⁵N-labeled N-TXNIP after addition of unlabeled, reduced TRX.

[2] = target: B1; experiment: 1H-15N HSQC NMR of 15N-labeled N-TXNIP
Protocol: as §1, §2
(§3) Further, TRX muteins were added and ¹H-¹⁵N HSQC spectra of ¹⁵N-labeled N-TXNIP were monitored to examine interaction between N-TXNIP and TRX. […] In contrast, C62A, C69A, and C73A mutants caused a chemical shift similar to the wild-type TRX (FIG. 12).

[3] = target: T1, TRX, wild-type, with C-terminal …; experiment: 1H-15N HSQC NMR
Protocol: as §1, §2, §3

TRX(C35A), tag-free [4] = target: T2, TRX(C35A), tag-free (human, UniProt P10599 1-105); experiment: co-crystal structure, X-ray, 2.7 Å
T2 construct: Human TRX with alanine for cysteine at position 35; Co-expressed tag-free with T-TXNIP mutants or N-TXNIP; also called modified TRX protein
T2 chain: B2 chain with C35A, A62C

HA-tagged TXNIP = target: T3, HA-tagged TXNIP (human, UniProt Q9H3M7 1-391); experiment: anti-FLAG agarose immunoprecipitation from HEK 293T lysates (50 mM iodoacetamide), Western blot
T3 construct: Expressed in HEK 293T cells
T3 sequence: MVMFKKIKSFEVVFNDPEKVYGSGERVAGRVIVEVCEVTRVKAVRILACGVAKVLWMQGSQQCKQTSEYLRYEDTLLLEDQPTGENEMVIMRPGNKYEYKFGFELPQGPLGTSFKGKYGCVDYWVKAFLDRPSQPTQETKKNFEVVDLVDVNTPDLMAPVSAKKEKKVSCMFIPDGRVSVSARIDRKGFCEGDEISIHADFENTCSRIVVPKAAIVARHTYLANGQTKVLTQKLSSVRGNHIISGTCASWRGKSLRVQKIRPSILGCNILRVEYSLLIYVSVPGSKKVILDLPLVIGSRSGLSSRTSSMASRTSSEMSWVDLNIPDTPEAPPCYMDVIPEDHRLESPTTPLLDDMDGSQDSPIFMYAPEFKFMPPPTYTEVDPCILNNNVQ
Protocol: To test the in vivo interprotomer interaction between TXNIP molecules, HEK 293T cells were transfected with plasmids expressing HA-tagged-TXNIP and FLAG-tagged T-TXNIP. 24 hours later, the cells were harvested and lysed in the 50 mM iodoacetamide-containing buffer [0.5% Triton X-100, 150 mM NaCl, 10% glycerol, 1 mM NaF, 1 mM AEBSF, 2 μg/mL leupeptin, 5 μg/mL aprotinin and 20 mM HEPES (pH 7.2)]. After centrifugation at 16,000 rpm for 20 minutes, the supernatant was incubated with anti-FLAG M2 agarose (Sigma) at 4° C. for 12 hours. The immobilized proteins were collected by centrifugation and washed three times with the lysis buffer. The bound proteins were subjected to SDS-PAGE under reduced and non-reduced conditions. […] 24 hours later, the cells were harvested and lysed in the lysis buffer. After centrifugation at 16,000 g for 20 minutes, the supernatants were incubated at 4° C. for 12 hours with monoclonal anti-FLAG M2 agarose beads (Sigma) for immunoprecipitation, or with glutathione-conjugated sepharose beads (GE Healthcare) for pull-down assay. The immobilized proteins were collected by centrifugation and washed three times with lysis buffer. Bound proteins or WCLs were eluted by boiling in SDS sample buffer. […]

TRX(C35A), tag-free [5] = target: T2, TRX(C35A), tag-free; experiment: size-exclusion chromatography
Protocol: A Superdex™ 200 10/300 GL gel filtration column (GE Healthcare) installed on an Acta purifier FPLC system (GE Healthcare) was equilibrated with 50 mM Tris-HCl (pH 8.0), 500 mM NaCl, and 10% glycerol at a flow rate of 0.4 ml/min at room temperature. Purified TRX-T-TXNIP and its mutants were injected onto the column. Ovalbumin was used as a molecular weight standard.
The structures of COM1 and COM2 are essentially identical, each contains two heterodimeric complexes of TRX and T-TXNIP in an asymmetric unit, with a large interface between the two T-TXNIP molecules (FIGS. 5A and B). […] Thus, the interfaces between the T-TXNIP molecules in the crystal structures merely constitute large crystal contacts.

[6] = target: B10; experiment: GST pull-down from transfected HEK 293T lysates, immunoblot
[7] = target: T4, T-TXNIP (TXNIP residues 3-317) (human, UniProt Q9H3M7 3-317); experiment: as above
T4 construct: In E. coli it was expressed with an N-terminal hexahistidine-tag that was removed by rTEV protease; also called native T-TXNIP; T-TXNIP(3-317)
T4 sequence: B7 chain with S168C, S203C, S265C

B1: binds [1].

B2: binds [2].

B3: binds [2].

B4: binds [2].

B5: no binding [3].

B6: no binding [3].

B7: binds (TRX(C35A), tag-free [4]).

B8: binds (HA-tagged TXNIP).

B9: binds (TRX(C35A), tag-free [5]); binds [6].

B10: binds [7].
